Test results published in patent US20260242447A1.

Target: SARS-CoV-2 spike protein (full length) (SARS-CoV-2) (UniProt P0DTC2)
Test: ELISA, GRP78-HRP on plate-bound spike protein

Chain of GRP78 (soluble / recombinant protein), P11021 19-654 (other; other documents disagree on this pair) (P11021 19-654 limits assumed): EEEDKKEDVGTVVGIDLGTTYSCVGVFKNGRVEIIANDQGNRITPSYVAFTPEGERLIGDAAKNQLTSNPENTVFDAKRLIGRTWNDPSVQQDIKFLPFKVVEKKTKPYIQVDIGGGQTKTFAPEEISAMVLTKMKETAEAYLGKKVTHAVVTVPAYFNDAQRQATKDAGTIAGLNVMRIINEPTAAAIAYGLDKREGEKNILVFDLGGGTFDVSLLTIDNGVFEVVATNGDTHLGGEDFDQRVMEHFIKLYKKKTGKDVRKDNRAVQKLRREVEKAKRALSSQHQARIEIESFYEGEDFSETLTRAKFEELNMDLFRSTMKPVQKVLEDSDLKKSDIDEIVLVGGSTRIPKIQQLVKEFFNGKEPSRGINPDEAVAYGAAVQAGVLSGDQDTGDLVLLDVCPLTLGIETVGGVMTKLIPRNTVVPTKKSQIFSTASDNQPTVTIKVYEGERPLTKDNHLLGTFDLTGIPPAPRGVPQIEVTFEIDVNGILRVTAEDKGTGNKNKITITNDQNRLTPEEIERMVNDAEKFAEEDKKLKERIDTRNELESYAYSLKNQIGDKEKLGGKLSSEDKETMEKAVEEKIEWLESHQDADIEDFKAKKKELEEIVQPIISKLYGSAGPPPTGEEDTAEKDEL

“GRP78 (soluble / recombinant protein), P11021 19-654 (other; other documents disagree on this pair)” was tested, and the Kd was 293 nM.
